Measured values reported in US20210230248A1, “Multivalent pharmacophores for high avidity and overexpressed-target specific binding and uses thereof” (priority 2020, published 2021).
Substitutions are numbered along the chain they refer to. Numbers in names are those of the source. One block for each molecule: values may come before it. Where no end group is shown, it is not given here.

Legend:
[1] = biological target: T1, uPAR overexpressing Hela cells (Homo sapiens, UniProt Q03405); experiment: Competitive binding assay on uPAR overexpressing Hela cells; conditions: ratio of IC50 values
T1 construct: endogenous in cells; host or cells: Hela cells
Excerpt: This assay is to measure the binding avidity of multivalent PEG-GFD pharmacophores to uPAR overexpressing Hela cells in comparison to uPA. Hela cells express uPAR but not uPA (Rabbani et al., Neoplasia, 2010, 12(10); 778-88), and therefore competition from endogenous uPA can be excluded.
Mouse anti-uPAR (Clone VIM5) is an uPAR blocking antibody (Sillaber et al., J Biol Chem, 1997, 272(12):7824-32). The potency of multivalent PEG-GFD pharmacophores and native uPA to compete against the antibody in binding to the overexpressed uPAR on the surface of Hela cells is measured and compared in this assay.
Hela cells were detached from culture flasks by trypsin/EDTA, resuspended in complete culture medium in a 50 mL conical tube, and incubated for 1 h at 37° C. in 5% CO2 incubator to allow receptor recovery. PE-conjugated anti-uPAR antibody (Clone VIM5; Invitrogen) at the final concentration of 0.5 μg/100 μL (33.33 nM) was mixed with titrated concentrations of 4-arm PEG-GFD and 6-arm PEG-GFD, and recombinant human uPA (Biolegend) in Stain Buffer. The mixture was added into Hela cells (500,000 cells in 100 μL; final density). […] The fluorescent intensity of PE on Hela cells was quantified by flow cytometry and plotted against the titration of 4-arm PEG-GFD, 6-arm PEG-GFD and uPA. The binding avidity of multivalent PEG-GFD pharmacophores relative to native uPA can be calculated.

[2] = test system: H1299, SW480, HT-1080 and PC3 cells; experiment: Cell adhesion assay on vitronectin coated plate; format: cell-based, human; conditions: four uPAR overexpressing cell lines; 3 h; various concentrations
Method: For adhesion of cancer cells to vitronectin, 96-well plate was coated overnight with vitronectin (Thermo Fisher Scientific) at 5 μg/mL in PBS at 4° C., 50 μL/well. The wells without coating were used as negative controls. The plate was then blocked with 3% MSD Blocking Buffer for 2 h at room temperature. Four uPAR overexpressing human cancer lines were used for the assay: non-small cell lung cancer line H1299, colorectal cancer line SW480, fibrosarcoma line HT-1080 and prostate cancer line PC3. The cells were detached from culture flasks by trypsin/EDTA, resuspended in complete culture medium in a 50 mL conical tube, and incubated for 1 h at 37° C. in 5% CO2 incubator to allow receptor recovery. Cells were then washed with serum-free medium and resuspended in DMEM medium with 0.5% BSA. 50,000 cells in 100 μL were plated into each well with various concentrations of 4-arm and 6-arm PEG-GFD pharmacophores, and uPAR blocking antibody, VIM5. The plates were incubated at 37° C. in 5% CO2 incubator for 3 h, and washed 4 times with PBS with 0.5% BSA. The number of adherent cells in each well was quantified by CellTiter-Glo (Promega).

H1299 and HT-1080 cells [3] = experiment: Chemotaxis assay (fibronectin coated transwell); format: cell-based, human; conditions: 10% FBS chemoattractant, 16 h
Method: Chemotaxis assay was performed using BD BioCoat 24-well transwell with 8 μm pore size filter which is coated with fibronectin (Corning). For the study, H1299 and HT-1080 cells were detached from culture flasks with trypsin/EDTA, and then the trypsin was deactivated by adding the complete medium. The cells were washed with serum-free medium twice and resuspended at the final density of 50,000 cells in 500 μL DMEM medium supplemented with 0.5% BSA. The cells were treated with multivalent pharmacophores and uPAR blocking antibody for 1 h at 37° C. in 5% CO2 incubator. 650 μL of DMEM with 10% FBS was used as chemoattractant and added into the lower chamber. Serum-free DMEM medium was used as a negative control, and no drug treatment well was considered as 100% migration. After placing the upper chamber into the lower chamber, 500 μL cell suspensions were added to the upper chamber. 4-arm PEG-GFD, 6-arm PEG-GFD and uPAR blocking antibody, VIM5, with various concentrations were added in both upper and lower chambers. The transwell was incubated at 37° C. in 5% CO2 incubator for 16 h. […] The number of cells migrated past the filter was quantify by reading the solution in plate reader after transferring into a white 96-well plates.

H1299 and HT-1080 cells [4] = experiment: Matrigel invasion assay; format: cell-based, human; conditions: 10 nM, 24 h
Method: The migration of cells through Matrigel indicates the ability of the cells to digest the extracellular matrix during the process of migration. The Matrigel invasion assay is similar to the chemotaxis assay above except that the 8 μm pore size filter is coated with Matrigel. BD BioCoat Matrigel Invasion Chamber (Corning) was used for the assay with H1299 and HT-1080 cells. 4-arm PEG-GFD, 6-arm PEG-GFD and the blocking antibody VIM5 were used at the concentration of 10 nM. After 24 h treatment, the Matrigel along with the cells remaining on the upper surface of filter in the upper chamber was scraped off with a cotton swab. The migrated cells were measured with CellTiter-Glo as described above.

[5] = biological target: T2, uPAR on cells (uPAR overexpressing Hela, HT-1080, H1299, SW480 and PC3 cells) (human, UniProt Q03405 23-305); experiment: competitive flow cytometry on uPAR overexpressing Hela cells against PE-VIM5 at ~33.33 nM
T2 construct: whole, on cells; also called CD87; overexpressed uPAR
Method: Hela cells were detached from culture flasks by trypsin/EDTA, resuspended in complete culture medium in a 50 mL conical tube, and incubated for 1 h at 37° C. in 5% CO₂ incubator to allow receptor recovery. […] The mixture was added into Hela cells (500,000 cells in 100 μL; final density). After incubation on ice for 3 h with occasional mixing, the cells were washed to remove the unbound test reagents.

[6] = biological target: T3, CD47 overexpressing Jurkat cells (Homo sapiens, UniProt Q08722); experiment: Competitive binding assay on CD47 overexpressing Jurkat cells; conditions: for IC50: against FITC-conjugated anti-CD47 B6H12.2 at ~33.3 nM, 3 h on ice; for increase of avidity compared to SIRPα monomer: ratio of IC50 values
T3 construct: endogenous in cells; host or cells: Jurkat cells
Method: This assay is to measure the binding avidity of multivalent PEG-SIRPα IgV pharmacophores to CD47 overexpressing Jurkat cells by competing against FITC-conjugated CD47 blocking antibody, and to compare the avidity to the affinity of wide-type SIRPα ectodomain.
FITC-conjugated mouse anti-human CD47 monoclonal antibody (Clone B6H12.2, Invitrogen) at the final concentration of 0.5 μg/100 μL (˜33.3 nM) was mixed with titrated concentration (from 0.04 nM to 10.5 μM in Stain Buffer) of SIRPα monomer (Acro Biosystems), 4-arm PEG-2K SIRPα IgV and 6-arm PEG-3.4K SIRPα IgV, both wide-type and Q67R mutant forms. The mixture was added into Jurkat cells (500,000 cells in 100 μL, final density). After incubation on ice for 3 h with occasional mixing, the cells were washed to remove the unbound reagents. The fluorescence intensity of FITC was quantified by flow cytometry. The increase of the binding activity for multivalent PEG-SIRPα IgV pharmacophores compared to SIRPα monomer can be calculated.

[7] = biological target: T4, human red blood cells (RBCs) (Homo sapiens, UniProt Q08722); experiment: Competitive binding assay on human red blood cells; conditions: either wide-type or mutant SIRPα IgV; antibody at ~33.3 nM; titration up to 200 nM
T4 construct: from tissue; host or cells: red blood cells from human whole blood of healthy donors
Method: To assess the risks from binding of multivalent PEG-SIRPα IgV pharmacophores to normal RBCs and subsequent anemia as has been reported for many CD47 targeting agents, a similar competitive binding assay as (4) above is conducted using RBCs as the binding targets.
Human whole blood from healthy donors was drawn into sodium heparin tube. The blood was washed 3 times with PBS and diluted in Stain Buffer (0.5×10^6 RBCs in 100 μL, final density). The competitive binding was performed by incubating RBCs with FITC-conjugated CD47 blocking antibody (Clone B6H12.2, Invitrogen) at the final concentration of 0.5 μg/100 μL (˜33.3 nM) and titrated concentration of 4-arm, or 6-arm PEG-SIRPα IgV as described above, or an unconjugated CD47 blocking antibody (B6H12.2, Invitrogen). A mouse isotype IgG1 was used as a negative control. RBCs were incubated with the reagents on ice for 3 h, mixing occasionally. After washing, the fluorescence intensity of FITC on RBCs was quantified by flow cytometry.

T3 sequence (Q08722 19-323): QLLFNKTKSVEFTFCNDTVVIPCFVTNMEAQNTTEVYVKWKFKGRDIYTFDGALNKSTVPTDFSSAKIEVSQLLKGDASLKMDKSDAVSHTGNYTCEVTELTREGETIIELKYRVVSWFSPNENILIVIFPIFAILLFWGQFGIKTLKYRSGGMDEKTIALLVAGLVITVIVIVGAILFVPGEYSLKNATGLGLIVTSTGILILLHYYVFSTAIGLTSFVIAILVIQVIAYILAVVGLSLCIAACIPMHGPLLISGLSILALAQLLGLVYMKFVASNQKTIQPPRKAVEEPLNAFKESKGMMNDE
T4 sequence (Q08722 19-323): as above
T2 sequence (Q03405 23-305): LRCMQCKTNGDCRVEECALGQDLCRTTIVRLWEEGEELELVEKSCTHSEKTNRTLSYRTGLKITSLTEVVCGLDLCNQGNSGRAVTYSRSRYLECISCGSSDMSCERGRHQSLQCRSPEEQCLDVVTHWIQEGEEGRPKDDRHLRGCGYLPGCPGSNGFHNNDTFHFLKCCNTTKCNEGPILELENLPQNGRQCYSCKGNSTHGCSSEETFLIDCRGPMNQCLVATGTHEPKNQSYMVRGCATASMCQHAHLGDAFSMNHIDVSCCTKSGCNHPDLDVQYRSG
T1 sequence (Q03405 23-335): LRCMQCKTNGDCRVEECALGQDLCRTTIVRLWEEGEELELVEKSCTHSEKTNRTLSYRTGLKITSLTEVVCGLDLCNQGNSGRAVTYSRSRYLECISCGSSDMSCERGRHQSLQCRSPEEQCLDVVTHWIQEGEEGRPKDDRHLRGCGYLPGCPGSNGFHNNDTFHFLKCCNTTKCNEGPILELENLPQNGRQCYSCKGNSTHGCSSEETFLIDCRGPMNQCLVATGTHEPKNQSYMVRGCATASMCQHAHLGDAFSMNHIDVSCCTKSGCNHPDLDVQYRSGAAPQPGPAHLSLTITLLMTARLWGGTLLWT

Molecule: 4-arm PEG-GFD: growth factor-like domain of uPA (first 43 amino acids) conjugated to 4-arm PEG-2K (VPSNCDCLNGGTCVSNKYFSNIHWCNCPKKFGGQHCEIDKSKT; not fully specified (C-terminus); ends and bridges not checked; also: conjugated to 4-arm PEG-2K (site not given here))
fold increase in binding activity relative to native uPA [1]: ~31 fold | inhibition of adhesion to vitronectin [2]: inhibited the adhesion of all four cell lines to vitronectin dose-dependently | migration of cells to the lower chamber (chemotaxis) (H1299 and HT-1080 cells [3]): significantly reduced migration | Matrigel invasion (H1299 and HT-1080 cells [4]): significantly inhibited

B1: 4-arm PEG-GFD (designed binder)
chain: VPSNCDCLNGGTCVSNKYFSNIHWCNCPKKFGGQHCEIDKSKT
modifications: not fully specified (C-terminus); ends and bridges not checked; also: four GFD units on 4-arm PEG-2K
notes: Four GFD units on 4-arm PEG-2K; Expressed in E. coli; also called tetravalent PEG-GFD pharmacophore; 4-arm PEG growth factor-like domain of uPA
IC50 [5]: 1.14 nM

B2: 6-arm PEG-GFD (designed binder)
chain: B1 chain
modifications: not fully specified (C-terminus); ends and bridges not checked; also: six GFD units on 6-arm PEG-3.4K
notes: Six GFD units on 6-arm PEG-3.4K; also called hexavalent PEG-GFD pharmacophore; 6-arm PEG growth factor-like domain of uPA
IC50 [5]: 0.412 nM

B6: 4-arm PEG-SIRPα IgV: 4 units of SIRPα IgV-like domain conjugated to 4-arm PEG-2K; wide-type or Q67R mutant not specified (conjugate)
chain: EEELQVIQPDKSVLVAAGETATLRCTATSLIPVGPIQWFRGAGPGRELIYNQKEGHFPRVTTVSDLTKRNNMDFSIRIGNITPADAGTYYCVKFRKGSPDDVEFKSGAGTELSVRA
competitive binding to RBCs against FITC-conjugated CD47 blocking antibody [7]: did not compete

B8: 6-arm PEG-SIRPα IgV: 6 units of SIRPα IgV-like domain conjugated to 6-arm PEG-3.4K; wide-type or Q67R mutant not specified (conjugate)
chain: B6 chain
competitive binding to RBCs against FITC-conjugated CD47 blocking antibody [7]: did not compete

Next, values leading:

IC50 [6]: 8.12 nM | increase of avidity compared to SIRPα monomer [6]: about 995 folds
B3: wide-type 4-arm PEG-SIRPα IgV: 4-arm PEG-2K conjugated with wide-type SIRPα IgV-like domain (conjugate)
chain: B6 chain

IC50 [6]: 10.9 nM
B4: mutant 4-arm PEG-SIRPα IgV: 4-arm PEG-2K conjugated with Q67R mutant SIRPα IgV-like domain (conjugate)
chain: B6 chain with Q37R

IC50 [6]: 1.06 nM
B5: mutant 6-arm PEG-SIRPα IgV: 6-arm PEG-3.4K conjugated with Q67R mutant SIRPα IgV-like domain (conjugate)
chain: B6 chain with Q37R

IC50 [6]: 0.723 nM | increase of avidity compared to SIRPα monomer [6]: ~11,174 folds
B7: wide-type 6-arm PEG-SIRPα IgV: 6-arm PEG-3.4K conjugated with wide-type SIRPα IgV-like domain (conjugate)
chain: B6 chain
